Data taken from patent publication US20230076063.

How the values were obtained:
Test in all cases: cell_activity
[1] = system: MamB K1033T K1033T (Mycobacterium tuberculosis); settings: SMRT sequencing kinetics; single isolate
[2] = system: MamA W136R W136R (Mycobacterium tuberculosis); settings: SMRT sequencing kinetics; methylation knockout, binding itself not measured
[3] = system: MamA E270A E270A (Mycobacterium tuberculosis); settings: SMRT sequencing kinetics; partial stochastic methylation
[4] = system: MamA G152S G152S (Mycobacterium tuberculosis); settings: SMRT sequencing kinetics; partial stochastic methylation

Substance | activity (mean SMALR native score) [1] | activity (mean SMALR native score) [2] | activity (mean SMALR native score) [3] | activity (mean SMALR native score) [4]
MamB target motif sites | 0.299 | – | – | –
CTGGAG (double strand) [MamA target motif sites] | – | -0.107 | 0.0558 | 0.766
